From PMC8506132, “Structural and Kinetic Insights Into the Molecular Basis of Salt Tolerance of the Short-Chain Glucose-6-Phosphate Dehydrogenase From Haloferax volcanii” (Frontiers in Microbiology, 2021)

Substrate: NC(=O)c1ccc[n+]([C@@H]2O[C@H](COP(=O)(O)OP(=O)(O)OC[C@H]3O[C@@H](n4cnc5c(N)ncnc54)[C@H](O)[C@@H]3O)[C@@H](O)[C@H]2O)c1
Assay: purified protein
Format: biochemical, Haloferax volcanii
Details: 2.0 M KCl, G6P co-substrate, pH 7.5, 25 °C, varied: cofactor

B1: HvG6PDH (Haloferax volcanii DS2) (protein)
chain: MDQPVLLTGAGGRVGQAILGHIGDAYDWRLLDREPLSDEKIPDSVDSTEVYVADVTDETAVRNAMDGVHAVIHLAGDPRPEAPWDSVLRNNIDGTQQMFDAAVDVGVEKFAFASSNHAVGAYETTDRTPDMYRPHHEFRLDGTELPRPSNLYGVSKAAGETLGRYYHDHHDISVVNVRIGNLTQHHPPKEYERGQAMWLSYRDCGHLFECCIEADYDYEIVYGISDNDRKYYSIDRARAVLGYDPQDNSAEFTFEGEPLDEA
notes: modelled as dimer
Km: 280 ± 68 µM | kcat: 48.5 ± 4.3 s⁻¹
